Test results published in paper PMC4058522, “Structural Basis for Phosphorylation-Dependent Recruitment of Tel2 to Hsp90 by Pih1” (Structure(London, England:1993), 2014).
Blank lines part the entries; values can stand above or below the binder they belong to. Square brackets hold non-standard residues; d marks the D form. Ends that are not written are not given here. pT = C[C@@H](OP(=O)(O)O)[C@H](N)C(=O)O; pS = N[C@@H](COP(=O)(O)O)C(=O)O

B1: Tah1p-Pih1p 187-344 complex (complex, yeast)
chain 1: MSQFEKQKEQGNSLFKQGLYREAVHCYDQLITAQPQNPVGYSNKAMALIKLGEYTQAIQMCQQGLRYTSTAEHVAIRSKLQYRLELAQGAVGSVQIPVVEVDELPEGYDRS
chain 2: HKIIEEEAGDPMSILRGRNDDGDDNNDPDDGTLPPLFPIENKISGAKIEEIDKNEIAHRNLKQAPAPAPAPHEQQEDVPEYEVKMKRFKGAAYKLRILIENKAPNSKPDRFSPSYNFAENILYINGKLSIPLPRDIVVNAADIKIFHIRKERTLYIYI
notes: Tah1, S. cerevisiae, full length; also called Tah1-Pih1-CS heterodimer
B3: human Spagh/RPAP3 120-395 (tandem TPR region) (domain or fragment, UniProt Q9H6T3 120-395, looked up)
chain: ESEEDGIHVDSQKALVLKEKGNKYFKQGKYDEAIDCYTKGMDADPYNPVLPTNRASAYFRLKKFAVAESDCNLAVALNRSYTKAYSRRGAARFALQKLEEAKKDYERVLELEPNNFEATNELRKISQALASKENSYPKEADIVIKSTEGERKQIEAQQNKQQAISEKDRGNGFFKEGKYERAIECYTRGIAADGANALLPANRAMAYLKIQKYEEAEKDCTQAILLDGSYSKAFARRGTARTFLGKLNEAKQDFETVLLLEPGNKQAVTELSKIKK
notes: Spagh/RPAP3, human, residues 120-395, tandem TPR region; GST fusion with a PreScission site; also called Spagh/RPAP3-TPR2 (label of the tandem region in the text); wild-type Spagh/RPAP3
B4: Spagh/RPAP3 120-395 N172E (domain or fragment, human, UniProt Q9H6T3 120-395, looked up)
chain: ESEEDGIHVDSQKALVLKEKGNKYFKQGKYDEAIDCYTKGMDADPYNPVLPTERASAYFRLKKFAVAESDCNLAVALNRSYTKAYSRRGAARFALQKLEEAKKDYERVLELEPNNFEATNELRKISQALASKENSYPKEADIVIKSTEGERKQIEAQQNKQQAISEKDRGNGFFKEGKYERAIECYTRGIAADGANALLPANRAMAYLKIQKYEEAEKDCTQAILLDGSYSKAFARRGTARTFLGKLNEAKQDFETVLLLEPGNKQAVTELSKIKK
notes: Spagh/RPAP3, human, residues 120-395, N172E in TPR1; also called N172E-TPR1 mutant
B5: Spagh/RPAP3 120-395 N321E (domain or fragment, human, UniProt Q9H6T3 120-395, looked up)
chain: ESEEDGIHVDSQKALVLKEKGNKYFKQGKYDEAIDCYTKGMDADPYNPVLPTNRASAYFRLKKFAVAESDCNLAVALNRSYTKAYSRRGAARFALQKLEEAKKDYERVLELEPNNFEATNELRKISQALASKENSYPKEADIVIKSTEGERKQIEAQQNKQQAISEKDRGNGFFKEGKYERAIECYTRGIAADGANALLPAERAMAYLKIQKYEEAEKDCTQAILLDGSYSKAFARRGTARTFLGKLNEAKQDFETVLLLEPGNKQAVTELSKIKK
notes: Spagh/RPAP3, human, residues 120-395, N321E in TPR2; also called N321E-TPR2 mutant
B6: dimeric C-terminal domain of Hsp90 (Hsp90 600-709) (domain or fragment)
chain: not shown
notes: Hsp90 residues 600-709, dimeric C-terminal domain; also called cHsp90; C-Hsp90

Tests used:
Conditions in all cases: both partners purified
[1] = target: B6; experiment: SEC; calibrated gel-filtration column; cHsp90, Tah1-Pih1p 187-344 and their mixture
[2] = target: B3; experiment: ITC; 2 mM … injected into 80 μM Spagh/RPAP3 120-395; 10 mM Tris pH 7.5, 5 mM NaCl; 10°C; two site fitting
[3] = target: B3; experiment: ITC; 2 mM … injected into 80 μM Spagh/RPAP3 120-395; 10 mM Tris pH 7.5, 5 mM NaCl; 30°C; two site fitting
[4] = target: B4; experiment: ITC; 2 mM … injected into 80 μM Spagh/RPAP3 120-395 mutants (N172E, N321E, N172E-N321E); 10 mM Tris pH 7.5, 5 mM NaCl; temperature not given; two site model
[5] = target: B5; experiment: as above
[6] = target: T1, His6-Hsp90β (human, UniProt P08238 1-724); experiment: pull-down; His6-Hsp90β as bait, Spagh/RPAP3 120-395 tandem TPR segment (wild type and mutants) as prey
T1 construct: Hsp90 beta, human; also called His-tagged Hsp90; human Hsp90β
T1 sequence (P08238 whole entry): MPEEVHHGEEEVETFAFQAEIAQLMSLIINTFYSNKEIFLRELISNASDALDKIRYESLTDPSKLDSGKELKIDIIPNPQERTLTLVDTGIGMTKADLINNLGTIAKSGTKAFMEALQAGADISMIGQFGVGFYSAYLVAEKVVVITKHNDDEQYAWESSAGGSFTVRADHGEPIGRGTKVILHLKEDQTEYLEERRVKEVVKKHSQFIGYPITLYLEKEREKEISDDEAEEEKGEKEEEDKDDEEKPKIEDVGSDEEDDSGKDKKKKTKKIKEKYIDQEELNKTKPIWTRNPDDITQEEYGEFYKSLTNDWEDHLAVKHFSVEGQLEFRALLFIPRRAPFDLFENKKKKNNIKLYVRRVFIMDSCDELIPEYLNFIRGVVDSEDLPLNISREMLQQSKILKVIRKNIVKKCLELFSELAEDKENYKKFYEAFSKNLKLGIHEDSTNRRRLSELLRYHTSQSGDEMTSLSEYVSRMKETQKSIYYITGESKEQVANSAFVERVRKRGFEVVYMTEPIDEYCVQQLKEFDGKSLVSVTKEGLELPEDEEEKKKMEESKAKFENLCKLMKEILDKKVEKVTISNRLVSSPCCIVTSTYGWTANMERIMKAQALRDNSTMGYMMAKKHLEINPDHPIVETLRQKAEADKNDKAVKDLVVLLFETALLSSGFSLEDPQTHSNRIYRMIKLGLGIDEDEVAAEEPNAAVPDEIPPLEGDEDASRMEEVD

[7] = target: T2, Tah1 (yeast, full-length) (yeast, UniProt P25638 1-111); experiment: SEC; calibrated gel-filtration column; cHsp90, Tah1-Pih1p 187-344 and their mixture
T2 construct: Tah1, S. cerevisiae, full length (C-terminal residue Ser 111); Selenomethionine-labelled Tah1 was used for the crystal structure; also called Tah1p; SeMetTah1
T2 sequence (looked up): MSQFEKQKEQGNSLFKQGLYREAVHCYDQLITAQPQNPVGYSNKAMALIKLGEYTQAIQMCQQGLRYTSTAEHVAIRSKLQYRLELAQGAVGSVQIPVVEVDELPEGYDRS

[8] = target: B1; experiment: as above
[9] = target: T3, FLAG-tagged Tah1 (yeast, UniProt P25638 1-111); experiment: co-IP; 70 μM Flag-Tah1p, Hsp90 600-709 and increasing concentrations of Cpr6 in 20 mM HEPES pH 7.5, 150 mM NaCl, 10% glycerol, 0.5% Igepal, 2 mM EDTA; Anti-Flag M2 magnetic beads; SDS-PAGE
T3 construct: Tah1p, S. cerevisiae; also called FLAG-Tah1; Flag-Tah1p
T3 sequence: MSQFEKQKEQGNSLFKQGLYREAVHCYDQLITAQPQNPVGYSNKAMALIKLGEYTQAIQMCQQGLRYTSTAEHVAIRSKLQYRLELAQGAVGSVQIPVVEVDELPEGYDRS

[10] = target: T4, Cpr6 (monomeric TPR-domain Hsp90 cochaperone) (UniProt P53691 1-371); experiment: as above
T4 construct: Cpr6, TPR-domain Hsp90 cochaperone
T4 sequence (P53691 whole entry): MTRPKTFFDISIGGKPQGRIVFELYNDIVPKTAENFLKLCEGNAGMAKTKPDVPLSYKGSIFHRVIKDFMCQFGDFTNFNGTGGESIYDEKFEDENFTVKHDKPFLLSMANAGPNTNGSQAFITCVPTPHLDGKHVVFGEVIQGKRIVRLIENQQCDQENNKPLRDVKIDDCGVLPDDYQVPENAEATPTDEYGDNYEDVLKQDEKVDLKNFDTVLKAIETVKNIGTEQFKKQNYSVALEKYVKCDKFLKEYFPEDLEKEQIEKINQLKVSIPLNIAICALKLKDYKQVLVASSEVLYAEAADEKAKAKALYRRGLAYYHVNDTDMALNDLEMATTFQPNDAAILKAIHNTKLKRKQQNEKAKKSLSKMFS

[11] = target: T5, mouse Pih1 PIH domain 1-200 (His-mPih1 1-200) (mouse, UniProt Q9CQJ2 1-200); experiment: ITC; peptides at 350 μM injected into 30 μM Pih1 (mPIH domain) at 30°C; 20 mM Tris pH 7.5, 5 mM NaCl
T5 construct: Pih1 (Pih1D1), mouse, residues 1-200; SeMet protein was used for the crystal structure 4CKT; The ITC methods say only 'Pih1' / 'mPIH domain'; also called mPIH domain; Pih1D1
T5 sequence (Q9CQJ2 1-200): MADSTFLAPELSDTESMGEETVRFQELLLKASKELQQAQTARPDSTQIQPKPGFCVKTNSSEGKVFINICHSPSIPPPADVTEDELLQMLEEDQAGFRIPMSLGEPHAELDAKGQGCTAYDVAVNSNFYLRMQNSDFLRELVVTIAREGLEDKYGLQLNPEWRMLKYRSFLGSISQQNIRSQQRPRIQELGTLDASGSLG

Binder: B1
stoichiometry N [1]: 1 Tah1-Pih1 heterodimer per cHsp90 chain (2:2:2)

KD of the moderate-affinity site (two site fitting) [2]: 24 µM
KD of the tight site (two site fitting) [2]: 1 µM
KD of the moderate-affinity site (two site fitting) [3]: 23.6 µM
KD of the tight site (two site fitting) [3]: 1.49 µM
stoichiometry N [3]: ~2 peptides per Spagh/RPAP3
KD of the TPR1 site (mutated; two site model) [4]: ~231 µM
KD of the TPR1 site (non-mutated; two site model) [5]: 0.94 µM
B2: human Hsp90 C-terminal peptide DDTSRMEEVD (peptide)
peptide: DDTSRMEEVD
notes: human Hsp90 C-terminal peptide; also called C-terminal Hsp90 peptide

Binder: B3
binding result [6]: binds

Binder: B4
binding result [6]: binds

Binder: B5
binding result [6]: binds

Binder: B6
binding result [7]: binds
binding result [8]: binds
binding result [9]: binds
binding result [10]: binds

Kd [11]: 6.4 µM
B7: Mre11 phosphopeptide MANDpSDDSI (peptide)
peptide: MAND[pS]DDSI
notes: Mre11, phosphorylation site 554-MANDpSDDSIS-563 found among sites in human proteins

Kd [11]: 45.7 µM
B8: Tel2 peptide with pSer492 replaced by phosphothreonine (peptide)
peptide: QGSDSELD[pT]DDEF
notes: also called phosphothreonine Tel2 peptide
